Here are results for 41 sequences from the nanobody polyreactivity screen of Harvey et al. (2022).

This data set in a line: yeast display, Sf9 membrane polyspecificity reagent, FACS + sequencing; frameworks hold sequencing errors. Put shortly: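 Galactose induction of a Saccharomyces cerevisiae BJ5465 synthetic nanobody display library ran 36–48 hours. The cells were then stained for 1 hour at 4 °C with 10% biotinylated, detergent-solubilized Sf9 membrane reagent, pulled down on streptavidin microbeads and FACS-sorted into low and high (top ~1%) gates on expression and reagent-binding fluorescence. Labels for polyreactivity follow the gate of origin.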
Turning to “QVQLVDSGGGLVQAGGSLRLSCAASGSIFFENDMGCYRQAPGKEREFVAAISLSSTSTYYADSVKGRFTISRDNAKNTVYLQMNSLKPEDTAVYYCAADAIFGWPTFDFWGQGTQVTVSS”, the “polyreactivity (PSR sort gate)” value is reported as “low polyreactivity”.
As to “QVQLVDSGGGLVQAGGSLRLSCAASGSIFLLYVMGWYRQAPGKERELVAAISSGGSTNYADSVKGRFTISRDNAKITVYLQMNSLKPEDTAVYYCNAVAGPQGVKLYDYWGQGTQVTVSS”, the “polyreactivity (PSR sort gate)” value is recorded as “low polyreactivity”.
With “QVQLVDSGGGLVQAGGSLRLSCAASGSIFPRYAMGWYRQAPGKERELVASISASGGSTYYADSVKGRFTISRDNAKITVYLQMYSLKPEDTAVYYCAKADRTGWLDGDYWGQGTQVTVSS” the entry was “low polyreactivity”; with “QVQLVDSGGGLVQAGGSLRLSCAASGSIFRYKAMGWYRQAPGKERELVAAISWSGGRTYYADSVKGRFTISRDNAKNTVYLQMNSLKPEDTAVYYCAAAWYSSSRYQGIYRFAYWGQGTQVTVSS”, “high polyreactivity”.
With “QVQLVDSGGGLVQAGGSLRLSCAASGSIFSVNAMGWYRQAPGKERQLVAAISVRGGRTYYADSVKGRFTISRDNAKNTVYLQMNSLIPEDTAVYYCATRISTVGRYDYWGQGTQVTVSS” the entry was “high polyreactivity”; with “QVQLVDSGGGLVQAGGSLRLSCAASGSIFVGNAMGWYRQAPGKERELVAAISWRGGRTYYADSVKGRFTISRDNAKYTVYLQMNSLKPEDTAVYYCATVKARDYGYWGQGTQVTVSS”, “high polyreactivity”; with “QVQLVDSGGGLVQAGGSLRLSCAASGSIFYVNAMGWYRQAPGKERELVASITQSGGSTYYADSVKRRFTISRDNAKNTVDLQMNILKPEDTSVYYCNADIHVYPTRTRYYYWGQGTQVTVSS”, “low polyreactivity”.
As for “QVQLVDSGGGLVQAGGSLRLSCAASGSIIYDYPMGWYRQAPGKEREFVASIDWRGDSTYYADSVKGRFTNSRDNAKNTVYLQMNRLKPEDTAVYYCAADRSYQYYFYEDYGYDYWGQGTQVTVSS”, the entry is “low polyreactivity”; as for “QVQLVDSGGGLVQAGGSLRLSCAASGSIYGYYAMGWYRQAPGKELVLVAVITSGATTNYADSLKGRFSISRDNAKNTGYLQMNSLKPEDTAVYYCAARPQVKRGRYGYWGQGTQVTVSS”, “low polyreactivity”.
As for “QVQLVDSGGGLVQAGGSLRLSCAASGSSFYISAMGCYRQAPGKERELVAAITNAGSTKYADSVKGRFTISRDNAKNTVYLQMNSLKPEDTAVYYCAAVTFSYDGYDYWGQGTQVTVSS”, the “polyreactivity (PSR sort gate)” value is recorded as “low polyreactivity”.
As for “QVQLVDSGGGLVQAGGSLRLSCAASGSTFPSNAMGWYRQAPGKERELVASIDRGGSTNNADSVKGRFTISRDNAKNTVYLQMNRLKPEDTAVYYCAAKRWPYWDISVYYWGYDYWGQGTQVTVSS”, the entry is “low polyreactivity”; as for “QVQLVDSGGGLVQAGGSLRLSCAASGSTFRYNVMGWYRQAPGKEREMVATISYSGGSTNYADSVKGRFTISRDNAKNTVYLPMNSLKPEDTAVYYCAARYLYPFYRYWWYDYWGQGTQVTVSS”, “high polyreactivity”; as for “QVQLVDSGGGLVQAGGSLRLSCAASGSTFRYYAMGWYRQAPGKEREFVAAITRSGGSTYYADSVKGRFTISRDNAKNTVYLQMNSLKPEETAVYYCNARPSASSRKKLERYYWGQGTQVTVSS”, “low polyreactivity”.
Regarding “QVQLVDSGGGLVQAGGSLRLSCAASGSTFTYYAMGWYRPAPGKERELVASITTSGGDTNYADSVKGRFTISRDNAKKTVYLQRNSQKPEDTPLYYCNTTTDQHYGYCAAADADRKYDYWGQGTQVTVSS”, the “polyreactivity (PSR sort gate)” value is “low polyreactivity”.
With “QVQLVDSGGGLVQAGGSLRLSCAASGSTIVYYAKGWYRHAPGKERELVAVISDDGGTYYADSVKGRFTISRDNAKNTVYFQMNSLKPEDTAFYYCAKDYYGGAYYWYNDRSGDYWGQGTQVTVSS” the entry was “low polyreactivity”; with “QVQLVDSGGGLVQAGGSLRLSCAASGSTLVYKDMGLYRQAPGKEREFVAAIRSNDGSTYYADSVKGRFTISRDNAKNTVYLQMNSLKPEDTAVYYCAKGRYAYSIWDDYWGQGTQVTVSS”, “low polyreactivity”.
As for “QVQLVDSGGGLVQAGGSLRLSCAASGSTSQKNAMGWYRQAPGKERELVAAISSGGSTYYADSVKGRFTISRDNAKNNVYLQLNSLKPEDTAVYNCAAKDLRGLGYWGQGTQVTVSS”, the entry is “high polyreactivity”; as for “QVQLVDSGGGLVQAGGSLRLSCAASGYIDGTYAMGWYRQAPRKERDLVASISSSGGSTYYADSVNGRFTISRDNAKNTVYLQMNSLKPEDTAVYYCNAERKIIAYLWWYDYWGQGTQVTVSA”, “low polyreactivity”; as for “QVQLVDSGGGLVQAGGSLRLSCAASRNAMGWYRQAPGKERELVGAISFRGGSTYYADSVKGRFTISRDNAKNTVYLQMNSLKPEDTAVYYCAKVQHHDYEGRGFPDAADGYWGQGTQVTVSS”, “low polyreactivity”.
As for “QVQLVDSGGGLVQAGGSLRLSCAASVRIFYEYAMGWYRKAPGKERQFVASISRTDGGTYYADSVKGRFTISRDNAKNTVYLQMNSLKPEENAVYYCATRAYYNTEVYYWGQGTQVTVSS”, the entry is “high polyreactivity”; as for “QVQLVDSGGGLVQAGGSLRLSCAAYGSTFGPYAMGWYRQAPGKERELVAAIRVSGGSTYYADSVKGRFTISRDNAKNTVYLQMNSLKPEDTAVYYCIRDVMTFNYDYWGQGTQVTVSS”, “low polyreactivity”.
For “QVQLVDSGGGLVQAGGSLRLSCDASGSTFLYYAMGWYRQAPGKERELVARITSRFGRTYYADSVKGRFTISRDNAKNTVYLQMNSLKPEDTAVYYCAAYPDYSYYYWGHGTQVTVSS”, the “polyreactivity (PSR sort gate)” value is listed as “high polyreactivity”.
For the sequence “QVQLVDSGGGLVQAGGSLRLSCDATGRIFRLYAMGWYRQAPGKERELVAAISWRGSSTNYADSVKGRFTISRDNAKNTVYLQRNSLKPEDTAVYYCAAPGRGGYYYWGQGTQVTVSS”, the “polyreactivity (PSR sort gate)” value is “high polyreactivity”.
As for “QVQLVDSGGGLVQAGGSLRLSCPASGRIFGRNAMAWYRQAPGKERELVAAISSSGGTYYADSVKGRFTISRDNAKNTVYLQMNSLKPEDTAVYYCAADPLYYWWRGDYWGQGTQVTVSS”, the entry is “high polyreactivity”; as for “QVQLVDSGGGLVQAGGSLRLSCSASGFTFKYYAMGWYRQAPGKERELVASINWSGGRTSYADSVKGRFTISRDNAKNTVYLQMNSQKPEDTAVYYCARTPAGRGEYWGQGTQVTVSS”, “low polyreactivity”.
As for “QVQLVDSGGGLVQAGGSLRLSFAASGITFFYYAMGWYRQAPGKERELVAAISTSGGRTYYADSVKGRFTISRDNAKNTVYLQMNSLKPEDTAVYYSAAQSGWLRYYYWGQGTQVTVSS”, the entry is “high polyreactivity”; as for “QVQLVDSGGGLVQAGGSLRLSSAASGRTFDYYAMGWYRQAPGKERELVAAITKDGGSTYYADSVKGRFTISRDNAKNTVFLQMNSLKPEDTAVYYCAADGPPLYYDPIHYDYWGQGTQVTVSS”, “low polyreactivity”; as for “QVQLVDSGGGLVQAGGSLRLSWAASGITFYTYTMGWYRQAPGKERELVAAISRRGGGTYYADSVKGRFTISRDNGKNTVYFQMNILKTEVTAVYYCAKDWYGRYYYWGQGTEVTVSS”, “high polyreactivity”.
As for “QVQLVDSGGGLVQAGGSLRLTCAACGSIFVNNSMGWSRQATGKQRELVAAISSRSSRTFYADSVKGRFTISRDNEKNTVFLQMNSLKPEDNAVYYCAVKKRAPDGDYWGLGTQVTVSS”, the entry is “high polyreactivity”.
On to “QVQLVDSGGGLVQAGGSLRLTCAASGSTIYWYAMGWYRQAPGKERELVAAISSSGSTKYADSVKGRFTISRDNAKNNVYLQINSLKPEDTAVYYCAADVEYDRDVPQQVYVSDDYWGQGTKVTVSS”, for which the “polyreactivity (PSR sort gate)” value is “low polyreactivity”.
With “QVQLVDSGGGLVQAGGSLSLSCAASGRTFNWYTMGWYRQAPGKEMELVARINGRGGSTYYADSVKGRFTISRDNAKNTVYLQMNSLKPEDTAVYYCNKPHRWPQAGYGYWGQGTQVTVSS” the entry was “high polyreactivity”.
For “QVQLVDSGGGLVQAGGSLSLSCAASGSIFNVYGMGWYRQAPGKERELVARINSRGGITYYADSVKGRFTISRDNAKNTVYLQMNSLKPEDTAVYYCATDTQDLQGYSWFDYWGQGTQVTVSS”, the “polyreactivity (PSR sort gate)” value is “high polyreactivity”.
As for “QVQLVDSGGGLVQAGGSLSLSCAASGSTFTDYDMGWYRQAPGKERELVAAITSGGSTNYADSVKGRFTISRDNAKKTVYLQMNSLNPEATAVYYCAAADADRKYDYWGQGTQVTVSS”, the entry is “low polyreactivity”; as for “QVQLVDSGGGLVQAGGSLSLSCAASGSTYAYYAMGWYRQAPGKVRELVAGITWTGGSTYYADSVKGRFTISRDNAKNTVYLQMNSLKPEDTAVYYCAVTYPYGYEYDHWGQGTQVTVSS”, “low polyreactivity”.
With “QVQLVDSGGGLVQAGGSLSLSCAASGYTMGYYTMGWYIEAPGKERELVATISRRGGSTSYADSVKGRFTISRDNAKNTVYLQMNSLKPEDTAVYYCNAQTSGRVGSQYYSYDGSWGQCTQVTVSS” the entry was “high polyreactivity”; with “QVQLVDSGGGLVQAGGSLSLSCGASGIIFVSNAMGWYRQAPGKERELVATINWSDDSTYYADSVKGRFTISRDNAKNTVYLQMNSLKPEDTAVYYCYWRQGTQVTVSS”, “low polyreactivity”; with “QVQLVDSGGGLVQAGGTHRLSCAASGFTFRRNAMGWYRQAPGKERELVAAITYNGGTSYYADSVKGRFSISRDNAKNTVYLQMNSLKPEETAVYYCAAVDSYSPYVSHDNWGQGTKVTVSS”, “low polyreactivity”.
In the case of “QVQLVDSGGGLVQPGGSLRLRCAASGGIFLQNAMGWYRQAPGTERELVAAISWSAGSTYYADSVKGRFTISRDNAKNTVYLDMNCLKPEDTAVYYCAAAGSNFTVWYGYYYWGQGTQVTVSS”, the “polyreactivity (PSR sort gate)” value is given as “low polyreactivity”.
As for “QVQLVDSGGGSVQAGGSLRLSCAASGRTFPYYAMGWYRQAPGKERELVAAITIGNTNYADSVKGRFTISRDNAKNTVYLQMNSLKPEDTAVYYCNASHVSHYRARDYWGQGTQVTVSS”, the entry is “low polyreactivity”; as for “QVQLVDSGGRLLQAGGSLRLSCAASGRTFYYYAKGWYRQAPGKERELVASITSDGDTNYADSVKGRFTISGDNAKNTGYLQMNSLKPEDTAVYYCAAEWQTQGYEYWGQGTQVTVSS”, “high polyreactivity”.
On to “QVQLVDSGVGLVQAGGSLRLSCAASGRIFDYYAMGWYRQAPGKERELVAAITSGGTTTYYADSVKGRFTISRDNAKNTVYLQMNSLKPEDTAVYYCAASFFGDGYIDLWYKFDYWGQGTQVTVSS”, for which the “polyreactivity (PSR sort gate)” value is “low polyreactivity”.
